According to patent US20230391828A1, “REGULATORS OF CELL DIVISION” (TECHNISCHE UNIVERSITÄT DRESDEN, priority 2020, published 2023):
“Also recorded” adds a separate entry of the source. Bridge positions count the residues as written; N and C are the ends. Square brackets hold non-standard residues; d marks the D form. 2Nal = N[C@@H](Cc1ccc2ccccc2c1)C(=O)O; R8 = C=CCCCCCC[C@@](C)(N)C(=O)O; S5 = C=CCCC[C@](C)(N)C(=O)O

Each substance was assayed against T1, APC/C (Homo sapiens, UniProt Q9NYG5) (assay: In vitro APC/C ubiquitination assay driven by the E2 enzyme UBE2C, fluorophore-labelled securin substrate). Conditions: 100 μM, UBE2C, reaction time 45 min.
T1 construct: made in house; host or cells: SF9 insect cells (baculovirus)
Format: biochemical
Method: Proteins were separated by SDS-PAGE electrophoresis using precast Bolt 4-12% Bis-Tris Plus protein gels (Thermo Fisher Scientific) and Criterion XT Bis-Tris Midi Protein Gels (Bio-Rad). In different experiments, various conditions were used: in vitro APC/C ubiquitination assays—165 V, 40 min, SDS-MES running buffer (50 mM MES, 50 mM Tris base, 0.1% SDS, 1 mM EDTA, pH 7.3; Thermo Fisher Scientific); in vitro APC/C ubiquitination assays determining KM—165V, 1 h, SDS-MOPS running buffer (50 mM MOPS, 50 mM Tris base, 0.1% SDS, 1 mM EDTA, pH 7.7; Thermo Fisher Scientific); pull-down binding assay—165 V, 35 min, SDS-MES running buffer.
APC/C-dependent ubiquitination reactions were performed at 30° C. in 30 mM HEPES pH 7.4, 175 mM NaCl, 8 mM MgCl2, 0.05% Tween-20, 1 mM DTT and 5% glycerol and contained 20 nM recombinant APC/C (note, for testing the first generation of inhibitors, APC/C and Cdc20 immunoprecipitated from mitotic HeLa K cells was used), 340 nM Cdc20, 46 nM GST-UBA1, 340 nM UBE2C (alternatively 400 nM UBE2D1, 280 nM UBE2S), 21 μM His6-ubiquitin or if it is indicated 21 μM methylated-ubiquitin (BostonBiochem), 2.6 mM ATP, 10 mM phosphocreatine and 11 μM creatine kinase. As substrates, 35 nM fluorophore-labeled ubiquitin-cyclin B and 50 nM fluorophore-labeled securin were standardly used (fluorophore IRDye 800CW (LI-COR) was used for labelling). In case of KM and kcat determination, 50, 100, 250, 500, 750, 1000, 1250, 2500 and 5000 nM fluorophore-labelled securin was used. The reaction was done in the volume of 15 μl, it was quenched after the indicated time with LDS sample buffer (Thermo Fisher Scientific) supplemented with 100 mM DTT and subjected to SDS-PAGE. Detection of fluorescently labelled substrates was done by quantitative near-infrared scanning system Odyssey.

Substance | inhibition of APC/C activity in vitro (ubiquitinated securin)
Ac-cyclo(2,11)-RCHWGPRTFWCR—NH2 (Ac-RCHWGPRTFWCR-NH2; disulfide 2-11; SMILES CC(=O)N[C@@H](CCCNC(=N)N)C(=O)N[C@H]1CSSC[C@@H](C(=O)N[C@@H](CCCNC(=N)N)C(N)=O)NC(=O)[C@H](Cc2c[nH]c3ccccc23)NC(=O)[C@H](Cc2ccccc2)NC(=O)[C@H]([C@@H](C)O)NC(=O)[C@H](CCCNC(=N)N)NC(=O)[C@@H]2CCCN2C(=O)CNC(=O)[C@H](Cc2c[nH]c3ccccc23)NC(=O)[C@H](Cc2c[nH]cn2)NC1=O) [G1-3] | the most potent molecule from items (b)-(e); also recorded: the most potent molecule from item (b)
Ac-cyclo(3,13)-THCDDPETWRWNCQRV-NH2 (Ac-THCDDPETWRWNCQRV-NH2; disulfide 3-13; SMILES CC(=O)N[C@H](C(=O)N[C@@H](Cc1c[nH]cn1)C(=O)N[C@H]1CSSC[C@@H](C(=O)N[C@@H](CCC(N)=O)C(=O)N[C@@H](CCCNC(=N)N)C(=O)N[C@H](C(N)=O)C(C)C)NC(=O)[C@H](CC(N)=O)NC(=O)[C@H](Cc2c[nH]c3ccccc23)NC(=O)[C@H](CCCNC(=N)N)NC(=O)[C@H](Cc2c[nH]c3ccccc23)NC(=O)[C@H]([C@@H](C)O)NC(=O)[C@H](CCC(=O)O)NC(=O)[C@@H]2CCCN2C(=O)[C@H](CC(=O)O)NC(=O)[C@H](CC(=O)O)NC1=O)[C@@H](C)O) [G1-7] | the most potent
cyclo(1,14)-[L 2-NaI L W K l E W E K R K p P] (cyclo(L[2Nal]LWK[dL]EWEKRK[dP]P); SMILES CC(C)C[C@@H]1NC(=O)[C@H](Cc2ccc3ccccc3c2)NC(=O)[C@H](CC(C)C)NC(=O)[C@@H]2CCCN2C(=O)[C@H]2CCCN2C(=O)[C@H](CCCCN)NC(=O)[C@H](CCCNC(=N)N)NC(=O)[C@H](CCCCN)NC(=O)[C@H](CCC(=O)O)NC(=O)[C@H](Cc2c[nH]c3ccccc23)NC(=O)[C@H](CCC(=O)O)NC(=O)[C@@H](CC(C)C)NC(=O)[C@H](CCCCN)NC(=O)[C@H](Cc2c[nH]c3ccccc23)NC1=O) [G2-4] | the most potent
cyclo(1,14)-[T F L W K W E W T K R K p P] (cyclo(TFLWKWEWTKRK[dP]P); SMILES CC(C)C[C@@H]1NC(=O)[C@H](Cc2ccccc2)NC(=O)[C@H]([C@@H](C)O)NC(=O)[C@@H]2CCCN2C(=O)[C@H]2CCCN2C(=O)[C@H](CCCCN)NC(=O)[C@H](CCCNC(=N)N)NC(=O)[C@H](CCCCN)NC(=O)[C@H]([C@@H](C)O)NC(=O)[C@H](Cc2c[nH]c3ccccc23)NC(=O)[C@H](CCC(=O)O)NC(=O)[C@H](Cc2c[nH]c3ccccc23)NC(=O)[C@H](CCCCN)NC(=O)[C@H](Cc2c[nH]c3ccccc23)NC1=O) [G2-8] | inhibit APC/C in vitro the most effectively compared to other molecules of item (f)

Same assay, conditions: 100 μM, UBE2C, reaction time 45 min, 3 independent assays

Substance | inhibition of APC/C activity in vitro compared with TAME
Ac-cyclo(4,11)-EWWZKLEIQRXRRA-NH2 (Ac-EWW[R8]KLEIQR[S5]RRA-NH2; staple 4-11; SMILES CC[C@H](C)[C@@H]1NC(=O)[C@H](CCC(=O)O)NC(=O)[C@H](CC(C)C)NC(=O)[C@H](CCCCN)NC(=O)[C@](C)(NC(=O)[C@H](Cc2c[nH]c3ccccc23)NC(=O)[C@H](Cc2c[nH]c3ccccc23)NC(=O)[C@H](CCC(=O)O)NC(C)=O)CCCCCCC=CCCC[C@@](C)(C(=O)N[C@@H](CCCNC(=N)N)C(=O)N[C@@H](CCCNC(=N)N)C(=O)N[C@@H](C)C(N)=O)NC(=O)[C@H](CCCNC(=N)N)NC(=O)[C@H](CCC(N)=O)NC1=O) [G3-4] [listing 1 of 2 here] | inhibit APC/C in vitro more efficiently than TAME
Ac-cyclo(5,9)-RWPQXIKDXQVRWW-NH2 (Ac-RWPQ[S5]IKD[S5]QVRWW-NH2; staple 5-9; SMILES CC[C@H](C)[C@@H]1NC(=O)[C@@](C)(NC(=O)[C@H](CCC(N)=O)NC(=O)[C@@H]2CCCN2C(=O)[C@H](Cc2c[nH]c3ccccc23)NC(=O)[C@H](CCCNC(=N)N)NC(C)=O)CCCC=CCCC[C@@](C)(C(=O)N[C@@H](CCC(N)=O)C(=O)N[C@H](C(=O)N[C@@H](CCCNC(=N)N)C(=O)N[C@@H](Cc2c[nH]c3ccccc23)C(=O)N[C@@H](Cc2c[nH]c3ccccc23)C(N)=O)C(C)C)NC(=O)[C@H](CC(=O)O)NC(=O)[C@H](CCCCN)NC1=O) [G3-3] [listing 1 of 2 here] | inhibit APC/C in vitro more efficiently than TAME

What follows are substances tested on APC/C (assay: Ubiquitinated securin (Mean ± SD)). Conditions: 100 µM.
From the text: Table printed on a drawing sheet, Figure 6
Head of the field: Ubiquitinated securin (Mean ± SD)

Substance | Ubiquitinated securin (Mean ± SD) [%]
Ac-cyclo(4,11)-EWWZKLEIQRXRRA-NH2 (Ac-EWW[R8]KLEIQR[S5]RRA-NH2; staple 4-11; SMILES CC[C@H](C)[C@@H]1NC(=O)[C@H](CCC(=O)O)NC(=O)[C@H](CC(C)C)NC(=O)[C@H](CCCCN)NC(=O)[C@](C)(NC(=O)[C@H](Cc2c[nH]c3ccccc23)NC(=O)[C@H](Cc2c[nH]c3ccccc23)NC(=O)[C@H](CCC(=O)O)NC(C)=O)CCCCCCC=CCCC[C@@](C)(C(=O)N[C@@H](CCCNC(=N)N)C(=O)N[C@@H](CCCNC(=N)N)C(=O)N[C@@H](C)C(N)=O)NC(=O)[C@H](CCCNC(=N)N)NC(=O)[C@H](CCC(N)=O)NC1=O) [G3-4] [listing 2 of 2 here] | 4.5 ± 7
Ac-cyclo(4,11)-EWWZKLELQRXRRA-NH2 (Ac-EWW[R8]KLELQR[S5]RRA-NH2; staple 4-11; SMILES CC(=O)N[C@@H](CCC(=O)O)C(=O)N[C@@H](Cc1c[nH]c2ccccc12)C(=O)N[C@@H](Cc1c[nH]c2ccccc12)C(=O)N[C@]1(C)CCCCCCC=CCCC[C@@](C)(C(=O)N[C@@H](CCCNC(=N)N)C(=O)N[C@@H](CCCNC(=N)N)C(=O)N[C@@H](C)C(N)=O)NC(=O)[C@H](CCCNC(=N)N)NC(=O)[C@H](CCC(N)=O)NC(=O)[C@H](CC(C)C)NC(=O)[C@H](CCC(=O)O)NC(=O)[C@H](CC(C)C)NC(=O)[C@H](CCCCN)NC1=O) [G3-5] | 6.1 ± 7
Ac-cyclo(5,9)-RWPQXIKDXQVRWW-NH2 (Ac-RWPQ[S5]IKD[S5]QVRWW-NH2; staple 5-9; SMILES CC[C@H](C)[C@@H]1NC(=O)[C@@](C)(NC(=O)[C@H](CCC(N)=O)NC(=O)[C@@H]2CCCN2C(=O)[C@H](Cc2c[nH]c3ccccc23)NC(=O)[C@H](CCCNC(=N)N)NC(C)=O)CCCC=CCCC[C@@](C)(C(=O)N[C@@H](CCC(N)=O)C(=O)N[C@H](C(=O)N[C@@H](CCCNC(=N)N)C(=O)N[C@@H](Cc2c[nH]c3ccccc23)C(=O)N[C@@H](Cc2c[nH]c3ccccc23)C(N)=O)C(C)C)NC(=O)[C@H](CC(=O)O)NC(=O)[C@H](CCCCN)NC1=O) [G3-3] [listing 2 of 2 here] | 5.1 ± 6
Ac-cyclo(5,9)-RWPQXKWDXQVRRW-NH2 (Ac-RWPQ[S5]KWD[S5]QVRRW-NH2; staple 5-9; SMILES CC(=O)N[C@@H](CCCNC(=N)N)C(=O)N[C@@H](Cc1c[nH]c2ccccc12)C(=O)N1CCC[C@H]1C(=O)N[C@@H](CCC(N)=O)C(=O)N[C@@]1(C)CCCC=CCCC[C@@](C)(C(=O)N[C@@H](CCC(N)=O)C(=O)N[C@H](C(=O)N[C@@H](CCCNC(=N)N)C(=O)N[C@@H](CCCNC(=N)N)C(=O)N[C@@H](Cc2c[nH]c3ccccc23)C(N)=O)C(C)C)NC(=O)[C@H](CC(=O)O)NC(=O)[C@H](Cc2c[nH]c3ccccc23)NC(=O)[C@H](CCCCN)NC1=O) [G3-1] | 15.7 ± 8
